Test results taken from patent US20180155451A1 (published 2018).

B1: GpH7-A5/GpH7-B3 variant I336_02A/GpL16-k0 (heterodimerized antibody, He Ab) (antibody, human IgG1, kappa)
heavy 1: not shown
heavy 2: not shown
light: DIVMTQSPLSLPVTPGEPASISCQASESLVHSNRNTYLHWYLQKPGQSPQLLIYKVSNRFSGVPDRFSGSGSGTDFTLKISRVEAEDVGVYYCSQNTHVPPTFGQGTKVEIERTVAAPSVFIFPPSDEQLKSGTASVVCLLNNFYPREAKVQWKVDNALQSGNSQESVTEQDSKDSTYSLSSTLTLSKADYEKHKVYACEVTHQGLSSPVTKSFNRGEC
notes: Anti-glypican-3 IgG1 heterodimerized antibody; the alteration stands only in the GpH7-B3 chain; Positions in EU numbering; also called I336A
B2: GpH7-A5/GpH7-B3 variant S267_10E/GpL16-k0 (He Ab) (antibody, human IgG1, kappa)
heavy 1: not shown
heavy 2: not shown
light: B1 light
notes: Anti-glypican-3 heterodimerized IgG1 antibody; the mutation stands in only one H chain (the GpH7-B3 chain); also called S267E in one H chain
B3: GpH7-A5/GpH7-B3 variant S337_02A/GpL16-k0 (antibody, human IgG1, kappa)
heavy 1: not shown
heavy 2: not shown
light: B1 light
notes: heterodimerized antibody, mutation in one H chain only; also called He Ab
B4: GpH7-A5/GpH7-B3 variant S267_16H/GpL16-k0 (He Ab) (antibody, human IgG1, kappa)
heavy 1: not shown
heavy 2: not shown
light: B1 light
notes: Anti-glypican-3 heterodimerized IgG1 antibody; the mutation stands in only one H chain (the GpH7-B3 chain); also called S267H in one H chain
B5: GpH7-A5/GpH7-B3 variant P238_16H/GpL16-k0 (antibody, human IgG1, kappa)
heavy 1: not shown
heavy 2: not shown
light: B1 light
notes: as for B3
B6: GpH7-A5/GpH7-B3 variant I336_03V/GpL16-k0 (heterodimerized antibody, He Ab) (antibody, human IgG1, kappa)
heavy 1: not shown
heavy 2: not shown
light: B1 light
notes: Anti-glypican-3 IgG1 heterodimerized antibody; the alteration stands only in the GpH7-B3 chain; Positions in EU numbering; also called I336V
B7: GpH7-A5/GpH7-B3 variant P238_19Q/GpL16-k0 (antibody, human IgG1, kappa)
heavy 1: not shown
heavy 2: not shown
light: B1 light
notes: as for B3
B8: GpH7-A5/GpH7-B3 variant P238_20W/GpL16-k0 (antibody, human IgG1, kappa)
heavy 1: not shown
heavy 2: not shown
light: B1 light
notes: as for B3
B9: GpH7-A5/GpH7-B3 variant P271_08L/GpL16-k0 (He Ab) (antibody, human IgG1, kappa)
heavy 1: not shown
heavy 2: not shown
light: B1 light
notes: Anti-glypican-3 heterodimerized IgG1 antibody; the mutation stands in only one H chain (the GpH7-B3 chain); also called P271L in one H chain
B10: GpH7-A5/GpH7-B3 variant H268_02A/GpL16-k0 (He Ab) (antibody, human IgG1, kappa)
heavy 1: not shown
heavy 2: not shown
light: B1 light
notes: Anti-glypican-3 heterodimerized IgG1 antibody; the mutation stands in only one H chain (the GpH7-B3 chain); also called H268A in one H chain
B11: GpH7-A5/GpH7-B3 variant I336_13S/GpL16-k0 (heterodimerized antibody, He Ab) (antibody, human IgG1, kappa)
heavy 1: not shown
heavy 2: not shown
light: B1 light
notes: Anti-glypican-3 IgG1 heterodimerized antibody; the alteration stands only in the GpH7-B3 chain; Positions in EU numbering; also called I336S
B12: GpH7-A5/GpH7-B3 variant I336_10E/GpL16-k0 (heterodimerized antibody, He Ab) (antibody, human IgG1, kappa)
heavy 1: not shown
heavy 2: not shown
light: B1 light
notes: Anti-glypican-3 IgG1 heterodimerized antibody; the alteration stands only in the GpH7-B3 chain; Positions in EU numbering; also called I336E
B13: GpH7-A5/GpH7-B3 variant H268_18N/GpL16-k0 (He Ab) (antibody, human IgG1, kappa)
heavy 1: not shown
heavy 2: not shown
light: B1 light
notes: Anti-glypican-3 heterodimerized IgG1 antibody; the mutation stands in only one H chain (the GpH7-B3 chain); also called H268N in one H chain
B14: GpH7-A5/GpH7-B3 variant S267_19Q/GpL16-k0 (antibody, human IgG1, kappa)
heavy 1: not shown
heavy 2: not shown
light: B1 light
notes: as for B3
B15: GpH7-A5/GpH7-B3 variant S298_06M/GpL16-k0 (antibody, human IgG1, kappa)
heavy 1: not shown
heavy 2: not shown
light: B1 light
notes: as for B3
B16: GpH7-A5/GpH7-B3 variant H268_01G/GpL16-k0 (He Ab) (antibody, human IgG1, kappa)
heavy 1: not shown
heavy 2: not shown
light: B1 light
notes: Anti-glypican-3 heterodimerized IgG1 antibody; the mutation stands in only one H chain (the GpH7-B3 chain); also called H268G in one H chain
B17: GpH7-A5/GpH7-B3 variant S298_08L/GpL16-k0 (antibody, human IgG1, kappa)
heavy 1: not shown
heavy 2: not shown
light: B1 light
notes: as for B3

Legend:
[1] = target: T1, FcγRIIIa extracellular domain with C-terminal His tag (human, UniProt P08637 17-208); assay: SPR (Biacore); ratio of He/Con_3a (FcγRIIIa) to He/Con_2b (FcγRIIb)
T1 construct: extracellular domain; Soluble receptor expressed in FreeStyle293 cells, used as analyte in Biacore; also called FcgRIIIa; 3a; not shown: His tag attached to the C terminus
In short: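 Antibodies with one altered H chain, captured on antigen-peptide chips, were tested against activating and inhibitory FcγRs by SPR. Running buffer HBS-EP+, 25 °C; 10 mM glycine-HCl, pH 1.5 regenerated the surface.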
T1 sequence (P08637 17-208): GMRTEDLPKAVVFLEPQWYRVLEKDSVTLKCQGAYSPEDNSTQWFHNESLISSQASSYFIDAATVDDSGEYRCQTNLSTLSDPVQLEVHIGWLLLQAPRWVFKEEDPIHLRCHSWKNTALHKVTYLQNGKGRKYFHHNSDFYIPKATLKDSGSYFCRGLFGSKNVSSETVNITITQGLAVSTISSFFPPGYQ

[2] = target: T1, FcγRIIIa extracellular domain with …; assay: SPR (Biacore), antibody captured via antigen peptide, FcγR as analyte; binding amount relative to control heterodimerized antibody
Method: (§1) The heterodimerized antibodies He Abs in which one of the H chains was introduced with an alteration were assayed for their binding activities to each activating FcγR and inhibitory FcγR according to the method described in Example 4. […] The activating FcγRs in FIGS. 26, 27, 28, and 29 are FcγRIa, FcγRIIa (R), FcγRIIa (H), and FcγRIIIa, respectively.
(§2) Analysis of interaction between objective antibody and the FcγR was carried out using Biacore T100 (GE Healthcare). HBS-EP+ (GE Healthcare) was used as the running buffer, and the measurement temperature was set to 25° C. Chips produced by immobilizing the antigen peptide by the amine coupling method to a Series S Sencor Chip CM5 (GE Healthcare), or alternatively, chips produced by allowing preliminarily biotinylated antigen peptides to interact with and immobilize onto a Series S Sensor Chip SA (certified) (GE Healthcare) were used. Antibodies of interest were captured onto an antigen peptide-immobilized chip, and allowed to interact to each FcγR diluted with running buffer. To regenerate and repeatedly use the chip, the antibodies captured on the chip were washed off by reacting 10 mM glycine-HCl, pH 1.5.

[3] = target: T2, FcγRIIb extracellular domain with C-terminal His tag (human, UniProt P31994 43-217); assay: as above
T2 construct: extracellular domain; Soluble receptor expressed in FreeStyle293 cells, used as analyte in Biacore; also called FcgRIIb; 2b; not shown: His tag attached to the C terminus
T2 sequence (looked up): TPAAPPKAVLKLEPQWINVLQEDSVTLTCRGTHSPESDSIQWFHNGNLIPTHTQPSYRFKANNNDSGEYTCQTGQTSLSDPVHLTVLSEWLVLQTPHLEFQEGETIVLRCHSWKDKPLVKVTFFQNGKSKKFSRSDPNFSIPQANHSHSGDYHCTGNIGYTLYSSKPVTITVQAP
Method: as §1, §2

[4] = target: T3, FcγRIIIa extracellular domain with C-terminal His tag (human, UniProt P08637 17-208); assay: SPR (Biacore); relative FcγRIIIa binding divided by relative FcγRIIb binding of the same antibody
T3 construct: extracellular domain; also called FcgRIIIa; 3a; not shown: His tag attached to the C terminus
Method: as §2
(§3) The FcγR-binding activity of each antibody was assessed primarily using as an indicator the FcγR-binding activity and dissociation constant for FcγR.
T3 sequence (P08637 17-208): as the sequence (P08637 17-208) above

[5] = target: T3, FcγRIIIa extracellular domain with …; assay: SPR (Biacore), antibody captured on antigen peptide chip, FcγR as analyte; bound amount against control heterodimerized antibody
Method: as §2, §3

[6] = target: T4, FcγRIIb extracellular domain with C-terminal His tag (human, UniProt P31994 43-217); assay: as above
T4 construct: extracellular domain; Expressed in FreeStyle293 cells and used as the analyte in Biacore; also called FcgRIIb; 2b; not shown: His tag attached to the C terminus
T4 sequence (looked up): T2 sequence (looked up)
Method: as §2, §3

[7] = target: T5, FcγRIIa R (human FcγRIIa, allotype R, Arg at position 131), extracellular domain with C-terminal His tag (human, UniProt P12318 34-217); assay: SPR (Biacore), relative binding vs GpH7-A5/GpH7-B3/GpL16-k0
T5 construct: extracellular domain; expressed in FreeStyle293 cells; analyte in Biacore; also called 2aR; FcgRIIa R
T5 sequence (looked up): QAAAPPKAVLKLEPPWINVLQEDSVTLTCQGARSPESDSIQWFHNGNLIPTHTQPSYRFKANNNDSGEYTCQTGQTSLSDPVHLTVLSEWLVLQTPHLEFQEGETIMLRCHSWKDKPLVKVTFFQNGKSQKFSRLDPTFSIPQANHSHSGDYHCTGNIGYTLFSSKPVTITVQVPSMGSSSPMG

Binder	He_3a/2b (IIIa/IIb) [4]	He/Con_3a (IIIa binding) [5]	He/Con_2b (IIb binding) [6]	He/Con_2aR [7]	also measured
B1					IIIa/IIb (He_3a/2b) [1]: 1.31 ratio; He/Con_3a (IIIa binding) [2]: 111 relative binding, GpH7-A5/GpH7-B3/GpL16-k0 = 100; He/Con_2b (IIb binding) [3]: 84.9 relative binding, GpH7-A5/GpH7-B3/GpL16-k0 = 100
B2	0.24 ratio of He/Con_3a to He/Con_2b	91.9 relative binding activity, GpH7-A5/GpH7-B3/GpL16-k0 = 100	379 relative binding activity, GpH7-A5/GpH7-B3/GpL16-k0 = 100		
B3				105 relative, control = 100	
B4	0.27 ratio of He/Con_3a to He/Con_2b	17.9 relative binding activity, GpH7-A5/GpH7-B3/GpL16-k0 = 100	65.9 relative binding activity, GpH7-A5/GpH7-B3/GpL16-k0 = 100		
B5				122 relative, control = 100	
B6					IIIa/IIb (He_3a/2b) [1]: 1.24 ratio; He/Con_3a (IIIa binding) [2]: 112 relative binding, GpH7-A5/GpH7-B3/GpL16-k0 = 100; He/Con_2b (IIb binding) [3]: 90.3 relative binding, GpH7-A5/GpH7-B3/GpL16-k0 = 100
B7				104 relative, control = 100	
B8				117 relative, control = 100	
B9	0.69 ratio of He/Con_3a to He/Con_2b	71 relative binding activity, GpH7-A5/GpH7-B3/GpL16-k0 = 100	103 relative binding activity, GpH7-A5/GpH7-B3/GpL16-k0 = 100		
B10	0.73 ratio of He/Con_3a to He/Con_2b	122 relative binding activity, GpH7-A5/GpH7-B3/GpL16-k0 = 100	167 relative binding activity, GpH7-A5/GpH7-B3/GpL16-k0 = 100		
B11					IIIa/IIb (He_3a/2b) [1]: 1.21 ratio; He/Con_3a (IIIa binding) [2]: 102 relative binding, GpH7-A5/GpH7-B3/GpL16-k0 = 100; He/Con_2b (IIb binding) [3]: 83.7 relative binding, GpH7-A5/GpH7-B3/GpL16-k0 = 100
B12					IIIa/IIb (He_3a/2b) [1]: 1.33 ratio; He/Con_3a (IIIa binding) [2]: 119 relative binding, GpH7-A5/GpH7-B3/GpL16-k0 = 100; He/Con_2b (IIb binding) [3]: 89.8 relative binding, GpH7-A5/GpH7-B3/GpL16-k0 = 100
B13	0.67 ratio of He/Con_3a to He/Con_2b	104 relative binding activity, GpH7-A5/GpH7-B3/GpL16-k0 = 100	156 relative binding activity, GpH7-A5/GpH7-B3/GpL16-k0 = 100		
B14				135 relative, control = 100	
B15				108 relative, control = 100	
B16	0.67 ratio of He/Con_3a to He/Con_2b	96.7 relative binding activity, GpH7-A5/GpH7-B3/GpL16-k0 = 100	144 relative binding activity, GpH7-A5/GpH7-B3/GpL16-k0 = 100		
B17				105 relative, control = 100	
